Measurements reported in the nanobody polyreactivity screen of Harvey et al. (2022).

Assay: yeast display, Sf9 membrane polyspecificity reagent, FACS + sequencing; frameworks hold sequencing errors
Method in brief: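 Galactose-induced (36–48 hours) yeast carrying a synthetic nanobody display library were exposed to 10% biotinylated, detergent-solubilized Sf9 membrane reagent at 4 °C for 1 hour. FACS followed streptavidin microbead enrichment, using low and high (top ~1%) gates for expression (anti-HA) and reagent binding (streptavidin). Colony PCR, MiSeq 2 × 250 sequencing and CDR-length filtering followed. Labels for polyreactivity reflect the gate of origin.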

Sequence | polyreactivity (PSR sort gate)
QVQLVESGGGLVQAGGSLRLSCAASGFIFQYYAMGWFRQARGKERELVAAIRSGGSTYYADSVKGRFTISRDNAKNTFYLQLNSLKPEDTAVYFCGAKYRVFYGFDYWGQGTQVTVSS | high polyreactivity
QVQLVESGRGLVQAGGSLRLSCAASGITFNFYAKGWYRKAPGKERELVAAITQSGGSTYYADSVKGRFTISRDNAKNTVYLQMISLKPEDTAVYYWAAARTGHMYDLGQGTQVTVSS | high polyreactivity
QVQLVESGGGLVQAGGSLRLSCAASGRTYLPNDMGWYRPAPGKERELVAAITDSGGDTYYADSVKGRFTISRDIAKNTVYLQMNSLKPEDTAVYYCAADYYYYGSYYPVEYWGHGTQVTVSS | high polyreactivity
QVQLVESGGGLVQAGASLRLSCAASGSIFADYAMGWYRQAPGKERELVAAISYNGDSTYYADSVKGRFTISRDNAKNTVYLQMNSLKPEDTGVYYCATEDNYWYVTGDLYHTAFYYWGQGTQVTVSS | low polyreactivity
QVQLVESGGGLVQAGGSLRLSCAASGITFGSYAMGWYRQAPGKEREFVAAISLSGGNTYYADSVKGRFTISRDNAKNTVYLQMNSLKPEDTAVYYCAADYEYSGYGYWGQGTQVTVSS | high polyreactivity
QVQLVESGGGLDQAGGSLRLSCAASGSIFFYYAMVWYRQAPGKERELVADITSGGTTYYADSVKGRFTISRDNAKNTVYLQLNSLKPEDTAVYYCNACLYPGQRPDYTNYSSDYLGQGTQVTVSS | low polyreactivity
QVQLVESGGGLVLAGGILRLSCAASGSTFYAYAMGWYRQAPGKERELVAAIDSGGSTYYADSVKGRFTISRDNAKNTVYLQMNSLKPEDTAVYYCAVRHRYTRAYWGRDYWGQGSQVTVSS | low polyreactivity
QVQLVESGGGLVQAGGSLRLSCAASGRIFRYYAMGWYRQAPGKERELVAAISGGRTYYADSVKGRFTISRDNAKNTVYLQMNSLKPEDTAVYYCNAGGIVWTGYWYDYDYWGQGTQVTVSS | high polyreactivity
QVQLVESGGGLVQAGGSLRLSCAASGRIFVFNAMGWYRQAPGKERELVAAISRRGGSTYYADSVKGRFTISRDNAKNTVYLQMNSLKPEVTAVYYCAAVYPDYSSARYDYWGQGTQVTVSS | high polyreactivity
QVQLVESVVGLVQARGSLRLSSAATGRTFSRYAMGWYRQAPGKESELVATISWSGTSKYYADSVKGRFTISRDNAKNTVYLQMNSLKPEETAVYYCDAYYLTRFSILYYYWGLGTQVTVSS | high polyreactivity
QVQLVESGGGLVQAGGSLRLICAASGIIFYKYTMGWYRQAPGKERELVAAITKSGVRTYYADSVKGRFTISRDNAKNTVYLQMNSLKPEDTAVYYCAAKTPTKDRGSDFDYWGQGTQVTVSS | high polyreactivity
QVQLVESGGGLVQAGGSLRLSCAASGSTFVSNAMGWSRQAPGKERELVAAITRRGGSTYYADSVKGRFTISRDNAKNTVYLQMNSLKPEDTAVYYCAAYSTLTPAYEYWGQGTQVTVSS | high polyreactivity
QVQLVESGGCLVQAGGSLRLSCPASGNNFTAYAMGWYRQAPAKERELVAAISSSGRTNYADSVKGRFTISRDNAKNTVYLQMNSLKPEDTAVYYCAAYRLSNPFYKYDYWGQGTQVTVSS | high polyreactivity
QVQLVESGGGLVQAGGSLRLSCAASGFNIVRYAMGWYRHAPRKERELVATITSGTSTNYADSVKGRITISRDNAKNTVYFQMNSLKPDDTAVYYCAADHYYTGTTYNFWGQGTQVNVSS | low polyreactivity
QVQLVDSGGGLVQAGGSLRLSCAASGSIFSVNAMGWYRQAPGKERQLVAAISVRGGRTYYADSVKGRFTISRDNAKNTVYLQMNSLIPEDTAVYYCATRISTVGRYDYWGQGTQVTVSS | high polyreactivity
QVQLVESVVGLVQAGGSLLISCAAYGLTFKGYAMVWYRQAPGKERELVAAITWDTGSTYYADSVKGRFSISRDNAKNTVYLQMNSLKPEDTAVYYCAAVGSTTTGVRRRGYWGHGTQVTVSS | high polyreactivity
QVQLEESGGGLVQAGGSLRLSCAASGSTFAPNAMGWYRAAPGKEMELVASIRRGGSTHYADSVKGRFTISRDNAKNTVYFQMNSLQPEDTAVYYCAAEFRDVSSNGYDFLGQGTQVTVSS | low polyreactivity
QVQLVESGGGLVQAGGSLRLSCAASGSNFTFNALGWYRQAPGKERELVAAISKSGDRTYADSVKGRFTISRDNAKNTVYLQMNSLKPDDTAVYYCAADFSVSRYDYWGQGTQVTVSS | low polyreactivity
QVQLVESGGGLVQAGGSLRLSCAASGSIFPHNAMGWYRTAPGKDRELVAAISWRDVISYYADSVKGRFTISRDNAKNTVYLQMNSLKPEDTAVYYCAAELRVYGVDYEYWGQGTQVTVSS | high polyreactivity
QVQLVESGGGLVQAGGSLRVSCDASGFTFFYNAMGRYRQAHGKERELVASISSVGRTNYADSVKGRFRISRDNAKNTVYLQMNSLTPEDTAVYFCAAYRAPATRRRGYYYWGLGTQVTVSS | high polyreactivity
QVQLGESGGGLVQAGGSLRLSCAASGSIFIGNAMGWYRQAPGKERELVAAITGRGGRTYYADSVKGRFTISRDNAKNTVYLQMNSLKTEDTAVYYCNAVARQFLYGYWGEGTQVTVSS | high polyreactivity
QVQLEESGGGLVKARGSLRITCAASGSTFDYYTMGWYRQAPGKERELFAAINSSGGRTYYADSVKGRFTISRDTAKNTVYLQMNSLIPEDTAVYDCAAVTLCLGRYPYTYTSRYEYWGLGTQVTVSS | high polyreactivity

Sequence | polyreactivity (PSR sort gate)
QVQLVESGGGLVQAGGSLRLSCAASGSIFNGYAMGWYRQAPGKERELVAAISWNGGRTYYADSVKGRFTISRDNAKNTVYLQMNSLKPEDTAVYYCNKVSGYDVDYWGQGTQVTVSS | high polyreactivity
QVQLVESGGGLVQAGGSLRISCAASGRIFVGYAMGWYRQAPGKERELVAAINRSGSSTYYADSVKGRFTISRDNAKNTVYLQMNSLKPEDTAVYYCNARSGNRYGPRYDYWGQGTQVTVSS | high polyreactivity
QVQLVESGGGLVQAGGTLRLSCAASGSIFARYAMGCSIQAPGKERELVAAISGSGASTYYADSVKGRFTISRDNAKNTVYLQMNSLKPEDTAVYYCARPFLRRPTYRFETGYGYWGQGTQVTVSS | high polyreactivity
QVQLVESGGGLVQAGGSLRLSCAASGRIFSWNTMGWYRQAPGKERELVAAITQSGSTYYADSVKGRFTISRDNAKNTVYLQMNSLKPEDTAVYYCAAVVGRRLYPRYDYWGQGTQVTVSS | high polyreactivity
QVQLVESGGGLVQAGGSLRLSCAASGRIIYDKAMGWYRQAPGKERELVAAISRSGRTYYADSVKGRFTISRDNAKNTVYLQMNSLKPEDSAVYYCNARTLTVLEFDYWGQGTQVTVSS | low polyreactivity
QVQLVESAGGLVQAGGSLRLSCADSGSTFSPYAMGWYIDAPGKERELVAAIRSGRTSYADSVKGRFTISRDNAKNTVYLQMNSLKPEDTAVYYCAKASRVGYYWGQGTQVTESS | high polyreactivity
QVQLVESAGGLVQAGGSLRLSCASSGSTLPYNAMGWYRQAPGKESELVAAISKSGGRTYYADSVKGRFTISRDNAKNSVYLQMNSLKPEDTAVYYCNAGPYLGGGGSSRYLWGQGTQVTVSS | high polyreactivity
QVQLVESGGGLVQARVSLRLICAASAIIIYDNAIGWYRQAPGKESEFVATINYSGDSTYYADSVKGRFTISRDNANNTVYLQMNSLKPEDTAVYYCATDGAWQYYWVYSHVYWGQGTQVTVSS | low polyreactivity
QVQLVESGGGLVQAGGSLRLSCAASGSTFVRNAMGWYRQAPGKERELVAGISTGDNTYYADSVKGRFTISRDNAKNTVNLQMNSLKPEDTAVYYCAARGLPSNYYYYVHGYIMDYWGQGTQVTVSS | low polyreactivity
QVQLVESGGGLVQAGGSLRISCAASGLIFNFNALGWYRQAPGKERELVAAITRSGSTDYADSVKGRFTISRDNAKNTVYLQLNSLKPEDTAVYYCAAEFYLRRFKVTKRYWFDYWGQGTQVTVSS | low polyreactivity
QVQLVQSGGGLVQAGGSLRLSCADSGRTFTRYTMGWYRQAPGKERELVAAISSGGSTTYADSVKGRFTISRDNAKNTVYLQMNSLKPEDTAVYYCAAGLVYRGYRRDYWGQGTQVTVSS | low polyreactivity
QVQLVESGGGLVQAGGSLRLSCAASGLTLYRYAMGWYRQAPGKERELVAGISWGGGSTYYADSVKGRFTISRDNAKNTVYLQMNSLKPEDTAVYYCAAGRLLYIPRYYYWGQGTQVTVSS | high polyreactivity
QVQLLESGGGLVPSGGSLRLSCAASGLTLYTYAMGWYRQAPGKERELVAAISKNGGRTYYADSVKGRFTISRDNAKITVYLQMNSLKPEDTAVYYCADRARVGTVTFDYWGQGTQVTVSS | low polyreactivity
QVQLVESGGGLVQAGGSLRLSCAASGNIFVVNAMGWYRQAPGIERELVAAITVSGGSTYYADSVKGRFTISRDNAKNTVYLQMNRLKPEDTAVYYCNAYYWHDNWDIELGKFDYWGQGTQVTVSS | low polyreactivity
QVQLVESGGGLVQAGGRLRLSCAASGRIFWSNTMGWYRQAPGKERELVAAISGRGGSTYYPDSVKGRFTISRDNAKNTVYLQMNSLKPEDTAVYYCAAKPTRSRKIYEYWGQGTQVTVSS | low polyreactivity
QVHLVDSGGGLVQAGGSLRLSSAASGRIFGHYALGGYRQAPGKPRELVAAIRYSAGRTYYAGSVKGRFTISRDNAKNSVNLQMNSLKPEDTSVYYCAKTCRYLTGGGDYWGQGTQVTVSS | high polyreactivity
QVQLQDSCGGLVQAGGSLRLNCATSGTIFVLWYMGWYRQAPGKERELVATINHGANTYSADSVKGRFTINRDNGNSTVYLQMNSLQPEDTAVYYCAVYAIIVWGLGYWGQGTQVTVSS | high polyreactivity
QVQLVESGGGLVQAGGSLRLSCAASGSIFAAYAKGWYIQAPGKERELVAAISDRGGSTYYADSVKGRFTISRDNSKITVYLQMNSLKPEDTAVYYCATSVFDVRGGPFYYWGQGTQVNVSS | high polyreactivity
QVQLVESGGGIVQAGGSLRLSCAASGSIFSGYAMGWYRQAPGKERELVAAIDWSGGTTYYADSVKGRFTISRDNAKNTVYLQMKSLKPEDTAVYYCAAKYPWYLSKDTLYYWGQGTQVTVSS | low polyreactivity
QVQLVESGGGLVQAGGSLRLSCAASGRIFTKYAMGWYRQAPGKERELVAAISGSGGNTYYADSVKGRFTISRDNAKNTVYLQMNSLKPEDTAVYYCAVESWRYVGFGYWGQGSQVTVSS | high polyreactivity
QVQLVESGGGLVQAGGSLRLSCAASGSIFASNAMGWYRQAPGKEREFVAAITWRTDRTHYADSVKGRFTISRDNAKNTVYLQMNSLKPEDTAVYYCAADTWFYRFYYWGQGTQVTVSS | high polyreactivity
